Patent US20240092890A1 (JUNTENDO EDUCATIONAL FOUNDATION, published 2024)
Numbering of substitutions follows the chain as printed.

B1: Antibody 101 (bispecific antibody, human IgG1, kappa, L234A L235A)
chain 1: not shown
chain 2: DIQMTQSPSFVSASVGDRVTITCLASEDIYSYLAWYQQKPGKAPKLLIFAANRLQDGVPSRFSGGGSGTGFTLTISSLQPEDFATYFCLQGSKFPYTFGQGTKLEINRTVAAPSVFIFPPSDEQLKSGTASVVCLLNNFYPREAKVQWKVDNALQSGNSQESVTEQDSKDSTYSLSSTLTLSKADYEKHKVYACEVTHQGLSSPVTKSFNRGECGGGGSGGGGSQVQLVQSGGGVVQPGRSLRLSCKASGYTFTRYTMHWVRQAPGKGLEWIGYINPSRGYTNYNQKVKDRFTISRDNSKNTAFLQMDSLRPEDTGVYFCARYYDDHYSLDYWGQGTPVTVSSGGGGSGGGGSGGGGSDIQMTQSPSSLSASVGDRVTITCSASSSVSYMNWYQQTPGKAPKRWIYDTSKLASGVPSRFSGSGSGTDYTFTISSLQPEDIATYYCQQWSSNPFTFGQGTKLQITR
B2: Antibody 103 (bispecific antibody, human IgG1, kappa, L234A L235A)
chain 1: not shown
chain 2: B1 chain 2 with F10S, V11L, D56S, G65S, G70D, F87Y, Q100P, L104V, E105D, N107K
B3: Antibody 102 (bispecific antibody, human IgG1, kappa, L234A L235A)
chain 1: not shown
chain 2: B1 chain 2 with D56S
B4: Antibody 100 (bispecific antibody, human IgG1, kappa, L234A L235A)
chain 1: not shown
chain 2: B1 chain 2
B5: Antibody 104 (bispecific antibody, human IgG1, kappa, L234A L235A)
chain 1: not shown
chain 2: B1 chain 2 with F10S, V11L, D56S, G65S, G70D, F87Y, Q100P, L104V, E105D, N107K
B6: Antibody 86 (bispecific antibody)
chain 1: not shown
chain 2: DIQMTQSPSSLSASVGDRVTITCLASEDIYSYLAWYQQKPGKAPKLLIFAANRLQSGVPSRFSGSGSGTDFTLTISSLQPEDFATYYCLQGSKFPYTFGPGTKVDIKRTVAAPSVFIFPPSDEQLKSGTASVVCLLNNFYPREAKVQWKVDNALQSGNSQESVTEQDSKDSTYSLSSTLTLSKADYEKHKVYACEVTHQGLSSPVTKSFNRGEC
B7: Antibody 106 (bispecific antibody)
chain 1: QVQLVQSGAEVKKPGSSVKVSCKASGYTFTRNFIHWIRQAPGQGLEWIGWIFPGDADTEYNQKFSGRATITADKSTSTAYMELSSLRSEDTAVYYCARGNYNYEYFDYWGQGTMVTVSSASTKGPSVFPLAPSSKSTSGGTAALGCLVKDYFPEPVTVSWNSGALTSGVHTFPAVLQSSGLYSLSSVVTVPSSSLGTQTYICNVNHKPSNTKVDKRVEPKSCGGGGSQVQLVQSGGGVVQPGRSLRLSCKASGYTFTRYTMHWVRQAPGKGLEWIGYINPSRGYTNYNQKVKDRFTISRDNSKNTAFLQMDSLRPEDTGVYFCARYYDDHYSLDYWGQGTPVTVSSGGGGSGGGGSGGGGSDIQMTQSPSSLSASVGDRVTITCSASSSVSYMNWYQQTPGKAPKRWIYDTSKLASGVPSRFSGSGSGTDYTFTISSLQPEDIATYYCQQWSSNPFTFGQGTKLQITRHHHHHH
chain 2: B6 chain 2 with S56D
B8: Antibody 111 (bispecific antibody)
chain 1: not shown
chain 2: B6 chain 2
chain 3: DKTHTCPPCPAPEAAGGPSVFLFPPKPKDTLMISRTPEVTCVVVDVSHEDPEVKFNWYVDGVEVHNAKTKPREEQYNSTYRVVSVLTVLHQDWLNGKEYKCKVSNKALPAPIEKTISKAKGQPREPQVCTLPPSREEMTKNQVSLSCAVKGFYPSDIAVEWESNGQPENNYKTTPPVLDSDGSFFLVSKLTVDKSRWQQGNVFSCSVMHEALHNHYTQKSLSLSPGK
B9: Antibody 109 (bispecific antibody)
chain 1: not shown
chain 2: B6 chain 2
chain 3: B8 chain 3
B10: Antibody 94 (bispecific antibody)
chain 1: not shown
chain 2: B6 chain 2 with S56D
B11: Antibody 91 (bispecific antibody)
chain 1: not shown
chain 2: B6 chain 2
B12: Antibody 92 (bispecific antibody)
chain 1: not shown
chain 2: B6 chain 2
B13: Antibody 88 (bispecific antibody)
chain 1: not shown
chain 2: B6 chain 2
B14: Antibody 90 (bispecific antibody)
chain 1: not shown
chain 2: B6 chain 2
B15: Antibody 89 (bispecific antibody)
chain 1: not shown
chain 2: B6 chain 2
B16: Antibody 110 (bispecific antibody)
chain 1: not shown
chain 2: B6 chain 2
chain 3: B8 chain 3
B17: Antibody 107 (bispecific antibody)
chain 1: not shown
chain 2: B6 chain 2 with S56D
chain 3: B8 chain 3
B18: Antibody 13 (bispecific antibody, human IgG1, kappa, L234A L235A)
heavy 1: not shown
heavy 2: QVQLQQSGAELVKPGSSVKISCKASGYTFTRNFIHWIKQQPGNGLEWIGWIFPGDGDTEYNQKFNGKATLTADKSSSTAYMQLSSLTSEDSAVYFCARGNYNYEYFDYWGQGVMVTVSSASTKGPSVFPLAPSSKSTSGGTAALGCLVKDYFPEPVTVSWNSGALTSGVHTFPAVLQSSGLYSLSSVVTVPSSSLGTQTYICNVNHKPSNTKVDKRVEPKSCDKTHTCPPCPAPEAAGGPSVFLFPPKPKDTLMISRTPEVTCVVVDVSHEDPEVKFNWYVDGVEVHNAKTKPREEQYNSTYRVVSVLTVLHQDWLNGKEYKCKVSNKALPAPIEKTISKAKGQPREPQVCTLPPSREEMTKNQVSLSCAVKGFYPSDIAVEWESNGQPENNYKTTPPVLDSDGSFFLVSKLTVDKSRWQQGNVFSCSVMHEALHNHYTQKSLSLSPGKGGGGSQVQLVQSGGGVVQPGRSLRLSCKASGYTFTRYTMHWVRQAPGKGLEWIGYINPSRGYTNYNQKVKDRFTISRDNSKNTAFLQMDSLRPEDTGVYFCARYYDDHYSLDYWGQGTPVTVSSGGGGSGGGGSGGGGSDIQMTQSPSSLSASVGDRVTITCSASSSVSYMNWYQQTPGKAPKRWIYDTSKLASGVPSRFSGSGSGTDYTFTISSLQPEDIATYYCQQWSSNPFTFGQGTKLQITR
light: DIQMTQSPASLSASLGETVSIECLASEDIYSYLAWYQQKPGKSPQLLIFAANRLQDGVPSRFSGSGSGTQFSLKISGMQPEDEGDYFCLQGSKFPYTFGPGTKLELNRTVAAPSVFIFPPSDEQLKSGTASVVCLLNNFYPREAKVQWKVDNALQSGNSQESVTEQDSKDSTYSLSSTLTLSKADYEKHKVYACEVTHQGLSSPVTKSFNRGEC
notes: B3 IgG with knob-into-hole heavy chains, hOKT3 scFv fused to the C-terminus of one heavy chain
B19: Antibody 15 (bispecific antibody, human IgG1, kappa, L234A L235A)
heavy: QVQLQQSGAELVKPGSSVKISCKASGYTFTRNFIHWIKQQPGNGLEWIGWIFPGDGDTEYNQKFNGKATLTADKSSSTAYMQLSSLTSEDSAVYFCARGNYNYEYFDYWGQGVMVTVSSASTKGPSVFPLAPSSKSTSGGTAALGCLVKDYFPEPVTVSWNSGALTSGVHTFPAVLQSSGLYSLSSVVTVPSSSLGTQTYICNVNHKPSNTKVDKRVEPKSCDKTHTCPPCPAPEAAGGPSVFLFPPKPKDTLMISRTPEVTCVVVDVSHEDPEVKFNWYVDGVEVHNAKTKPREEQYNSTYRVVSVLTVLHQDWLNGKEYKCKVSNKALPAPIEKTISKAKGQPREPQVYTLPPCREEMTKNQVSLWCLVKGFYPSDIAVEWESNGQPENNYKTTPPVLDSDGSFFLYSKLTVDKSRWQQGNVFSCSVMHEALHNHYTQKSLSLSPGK
light: B18 light
chain: QVQLVQSGGGVVQPGRSLRLSCKASGYTFTRYTMHWVRQAPGKGLEWIGYINPSRGYTNYNQKVKDRFTISRDNSKNTAFLQMDSLRPEDTGVYFCARYYDDHYSLDYWGQGTPVTVSSGGGGSGGGGSGGGGSDIQMTQSPSSLSASVGDRVTITCSASSSVSYMNWYQQTPGKAPKRWIYDTSKLASGVPSRFSGSGSGTDYTFTISSLQPEDIATYYCQQWSSNPFTFGQGTKLQITREPKSCDKTHTCPPCPAPEAAGGPSVFLFPPKPKDTLMISRTPEVTCVVVDVSHEDPEVKFNWYVDGVEVHNAKTKPREEQYNSTYRVVSVLTVLHQDWLNGKEYKCKVSNKALPAPIEKTISKAKGQPREPQVCTLPPSREEMTKNQVSLSCAVKGFYPSDIAVEWESNGQPENNYKTTPPVLDSDGSFFLVSKLTVDKSRWQQGNVFSCSVMHEALHNHYTQKSLSLSPGK
notes: B3 half IgG hetero-associated by knob-into-hole with hOKT3 scFv-Fc
B20: Antibody 14 (bispecific antibody, human IgG1, kappa, L234A L235A)
heavy: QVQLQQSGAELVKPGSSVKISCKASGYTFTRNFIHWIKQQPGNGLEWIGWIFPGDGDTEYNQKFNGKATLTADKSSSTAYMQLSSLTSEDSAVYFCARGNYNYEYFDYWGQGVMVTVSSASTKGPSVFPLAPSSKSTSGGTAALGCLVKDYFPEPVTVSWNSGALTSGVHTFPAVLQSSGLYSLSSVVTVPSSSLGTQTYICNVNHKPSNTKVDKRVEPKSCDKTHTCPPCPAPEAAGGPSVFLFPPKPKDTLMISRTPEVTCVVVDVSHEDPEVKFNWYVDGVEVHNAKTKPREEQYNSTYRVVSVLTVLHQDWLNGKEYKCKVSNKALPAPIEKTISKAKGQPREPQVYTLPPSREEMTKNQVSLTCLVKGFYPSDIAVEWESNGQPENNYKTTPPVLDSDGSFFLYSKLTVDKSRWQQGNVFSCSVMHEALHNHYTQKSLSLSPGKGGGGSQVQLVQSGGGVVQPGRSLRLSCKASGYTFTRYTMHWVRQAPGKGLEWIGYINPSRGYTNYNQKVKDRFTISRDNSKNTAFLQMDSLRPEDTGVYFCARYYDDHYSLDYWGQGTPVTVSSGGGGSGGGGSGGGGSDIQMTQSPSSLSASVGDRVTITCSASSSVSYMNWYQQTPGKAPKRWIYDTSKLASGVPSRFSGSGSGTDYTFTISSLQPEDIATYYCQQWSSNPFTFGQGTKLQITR
light: B18 light
notes: B3 IgG with hOKT3 scFv fused to the heavy chain C-terminus

Molecular target: T1, protein having an Fc region and a His-tag added to the N-terminus of SEQ ID NO: 1
T1 construct: also called mutant CALR protein (antigen of the BLItz measurement); not shown: Fc region and His-tag at the N-terminus
T1 chain: RRMMRTKMRMRRM
Assay: BLItz biolayer interferometry, Fc/His-SEQ ID NO: 1 protein on the biosensor
Outline: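 The Fc/His-tagged protein was loaded at 0.1 mg/mL onto Anti-Penta-HIS or Protein A biosensors. Antibodies were run at 500, 100 and 50 nM by biolayer interferometry, and the dissociation constant was derived from these binding curves.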

Row | Kd [nM] | Binder
1 | < 0.001 | B1
2 | < 0.001 | B2
3 | < 0.001 | B3
4 | < 0.001 | B4
5 | < 0.001 | B5
6 | < 0.001 | B6
7 | 4.99 | B7
8 | 12.8 | B8
9 | 9.91 | B9
10 | < 0.001 | B10
11 | < 0.001 | B11
12 | < 0.001 | B12
13 | < 0.001 | B13
14 | < 0.001 | B14
15 | < 0.001 | B15
16 | 5.33 | B16
17 | 12.1 | B17
18 | < 0.001 | B18
19 | 6.68 | B19
20 | < 0.001 | B20

These binders were tested against T2, Ins 5 type mutant CALR protein on UT-7/TPO CALR Ins 5 cells (UniProt P27797 18-417) (assay: cell-based or functional assay).
T2 sequence (looked up): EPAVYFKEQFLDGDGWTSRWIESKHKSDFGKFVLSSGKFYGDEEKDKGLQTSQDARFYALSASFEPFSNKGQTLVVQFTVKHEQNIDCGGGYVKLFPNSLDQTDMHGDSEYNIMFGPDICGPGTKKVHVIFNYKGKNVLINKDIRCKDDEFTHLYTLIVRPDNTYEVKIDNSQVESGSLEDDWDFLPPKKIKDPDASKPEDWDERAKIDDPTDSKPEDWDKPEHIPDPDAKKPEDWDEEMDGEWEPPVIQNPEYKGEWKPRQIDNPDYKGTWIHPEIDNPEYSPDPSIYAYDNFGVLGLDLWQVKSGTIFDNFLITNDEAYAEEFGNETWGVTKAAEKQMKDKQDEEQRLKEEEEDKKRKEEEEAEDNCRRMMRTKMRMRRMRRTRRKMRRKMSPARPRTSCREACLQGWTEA

Row | Binder | EC50 of cytotoxic activity (calcein release, T-LAK effector cells) [nM]
21 | B18 | 4.47
22 | B19 | 1.29
23 | B20 | 0.989

Molecular target: T2, Ins 5 type mutant CALR protein on …
Assay: cell-based or functional assay
Remark: another data set of the same source

Row | Binder | EC50 of cytotoxic activity (pM)
24 | B1 | 1660
25 | B2 | 399
26 | B3 | 850
27 | B4 | 1080
28 | B5 | 621
29 | B6 | 58
30 | B7 | 2560
31 | B8 | 6110
32 | B9 | 3800
33 | B10 | 32
34 | B11 | 230
35 | B12 | 47
36 | B13 | 28
37 | B14 | 269
38 | B15 | 77
39 | B16 | 2540
40 | B17 | 3870
